Laboratory results reported in patent US9688764B2, “Methods of treating breast cancer by administering anti-human prolactin receptor (PRLR) antibodies” (REGENERON PHARMACEUTICALS, INC., priority 2013, dated 2017).
Read-outs that look alike come from different tables or passages of the source.

B1: H1H6762P-DM1 (conjugate)
VH: QVQLVESGGGVVQPGRSLRLSCAASGFTFSHYGMVWVRQPPGKGLEWVALISFDGTTKYYADSVKGRFTISRDNSKNTLYLQMNSLRAEDTAVYFCVGAIAAAAFDLWGRGTLVTVSS
VL: EIVMTQSPATLSVSPGERATLSCRASQSVSSDLAWYQQKPGQAPRLLIYSASARATGIPARFTGSGSGTDFTLTISSLQSEDFAVYYCQQYNNWPMYTFGQGTKLEIK
B2: H1H6953N-SMCC-DM1 (conjugate)
VH: EVQLLESGGGLVQPGGTLRLSCAASGFTFSAYAMSWVRQAPGKGLEWVSSINVRAGDTYYADSVKGRFTISRDNSKNTLFLLMNSLRAEDTAAYYCAKARYSSNWGFDFWGQGTLVTVSS
VL: DIVMTQSPDSLTVSLGARTTINCQSSQTILHSSNNHNYLAWYQQKPGLPPKLLIYWSSTRESGVPDRFSGSGSGTDFTLTISSLQAEDVAIYYCQQYSNTPYTFGQGTKLEIN
B3: H1H6958N2-mc-VC-PAB-MMAE (conjugate)
VH: QVQLVESGGGVVQPGRSLRLSCGASGFTFRNYGMQWVRQGPGKGLEWVTLISFDGNDKYYADSVKGRFTISRDNSKNTLFLQMNSLRTEDTAVYYCARGGDFDYWGQGTLVTVSS
VL: DIQMTQSPSSLSASVGDRVTITCRASQDIRKDLGWYQQKPGKAPKRLIYAASSLHSGVPSRFSGSGSGTEFTLTISSLQPEDFATYYCLQHNSYPMYTFGQGTKLEIK
B4: H1H6800P-DM1 (conjugate)
VH: EVQLVESGGGLVQPGRSLRLSCAASGFTFDGYAMHWVRQGPGKGLEWVSGISWYSDTLGYADSVKGRFTISRDNAKNSLYLQMNSLRTEDTAFYYCAKISSSGWAFDYWGQGTLVTVSS
VL: EIVLTQSPGTLSLSPGERATLSCRASHSVSSAYLAWYQQKPGQTPRLLIYGTSSRATGIPDRFSGSGSGTDFTLTISRLEPEDFAVYYCQQYGSSPLFTFGPGTKVDIK
B5: H1H6765P-mc-VC-PAB-MMAE (conjugate)
VH: EVQLVESGGGVVRPGGSLRLSCVGSGFSFDDHGMNWVRQGPGKGLEWVSGFNWNGGSTNYAESVKGRFTISRDNARNSLFLQMNSLRAEDTALYYCVRGRSGWFNDAFDVWGPGTMVTVSS
VL: EIVLTQSPGTLSLSPGERATLSCRASQTINSNYLAWYRQKPGQTPRLLIYGTSSRATGIPDRFSGSGSGTDFSLTISRLEPEDFAVFYCQQYAGLPTFGPGTKVDIK
B6: H1H6803P-DM1 (conjugate)
VH: EVQLVESGGGVVRPGGSLRLSCAASGFKFDDYGMTWVRHVPGKGLEWVSGINWNGGRTGYTDSVKGRFTISRDNAKNSLYLQMNSLRAEDTALYHCAGARRDAFDIWGQGTMVTVSS
VL: DIQMTQSPSSLSASIGDRVTITCRASQNIIKYLNWYQQNAGKAPKLLIYTASSLQSGVPSRFSGSGSGTDFTLTISSLQPEDFATYYCQQSSSSPYTFGQGTKLEIK

Key:
[1] = test system: HEK293 (293) cells; test: Cell viability (cell kill) assay; assay type: cell-based; details: 293
Text: (§1) PRLR-overexpressing cells, including HEK293, PC3, MCF7 and NCI-N87, were generated to assess the ability of anti-PRLR conjugated antibodies to reduce cell viability. For comparative purposes, PC3 and T47D cells with overexpressed ErbB2 were also generated, as well as an MCF7 cell line over-expressing both hPRLR and hErbB2. Briefly, Lipofectamine® 2000-mediated transfection methodology was utilized to generate HEK293 cells expressing human PRLR (HEK293/hPRLR) or human ErbB2 (HEK293/hErbB2). Lipofectamine LTX with Plus Reagent was used to generate PC3 cells expressing human PRLR (PC3/hPRLR) or human ErbB2 (PC3/hErbB2). Lentiviral-mediated transduction was utilized to generate MCF7 cells expressing human PRLR (MCF7/hPRLR), NCI-N87 cells expressing human PRLR (NCI-N87/hPRLR), T47D cells over-expressing human ErbB2 (T47D/hErbB2), and MCF7 cells expressing both human PRLR and human ErbB2 (MCF7/hPRLR/hErbB2). All lines were selected for at least two weeks in complete growth media plus appropriate selection reagents. Stably expressing populations were enriched for PRLR expression via FACS using the anti PRLR antibody Control I.
(§2) Next, the ability of anti-PRLR-DM1 antibody-drug conjugates (i.e., anti-PRLR antibodies conjugated to DM1 via a non-cleavable linker [SMCC]) to reduce cell viability was determined using in vitro cell based assays. Cells were seeded in PDL-coated 96 well plates at 1500 to 10000 cells per well in complete growth media and allowed to grow overnight. For cell viability curves, ADCs or free DM1 (as the methyl disulfide derivative DM1-SMe) were added to the cells at final concentrations ranging from 500 nM to 5 pM and incubated for 3 days. The 293, PC3 and T47D cells were incubated with CCK8 (Dojindo, Rockville, Md.) for the final 1-3 hours and the absorbance at 450 nm (OD450) was determined on a Flexstation3 (Molecular Devices, Sunnyvale, Calif.). MCF7 cells were treated with Hoechst 33342 nuclear stain while being fixed with 4% formaldehyde. Images were acquired on the ImageXpress micro XL (Molecular Devices, Sunnyvale, Calif.) and nuclear counts were determined via Columbus image analysis software (Perkin Elmer, Shelton, Conn.). Background OD450 values (PC3, 293, and T47D) or nuclear counts (MCF7) from digitonin (40 nM) treated cells was subtracted from all wells and viability was expressed as a percentage of the untreated controls. IC50 values were determined from a four-parameter logistic equation over a 10-point response curve (GraphPad Prism).

[2] = test system: PC3/hPRLR cells; test: Cell viability (cell kill) assay; assay type: cell-based, human
Text: as §1, §2
(§3) Finally, the potency of anti-PRLR antibodies conjugated to DM1 via the non-cleavable linker SMCC was compared to the cell killing potency of anti-PRLR antibodies conjugated to MMAE via the cleavable linker: mc-vc-PAB (available from Concortis, San Diego, Calif.). Cells used in this experiment were PC3, PC3/hPRLR, MCF7/ATCC and MCF7/PRLR.

[3] = test system: MCF7 (MCF7/ATCC) cells; test: Cell viability (cell kill) assay, nuclear counts; assay type: cell-based
Text: as §1, §2, §3
(§4) Additional toxins (DM4, MeNHC3-May, and MMD) conjugated to anti-PRLR antibodies were also tested in T47D and MCF7/hPRLR cell lines, and results are summarized in Tables 19 (293 and T47D cell killing) and 20 (MCF7/ATCC and MCF7/PRLR cell killing). (ND=not detected).

[4] = test system: MCF7/hPRLR (MCF7/PRLR) cells; test: Cell viability (cell kill) assay, nuclear counts; assay type: cell-based, human
Text: as §1, §2, §3, §4

[5] = test system: T47D cells; test: Cell viability (cell kill) assay; assay type: cell-based; details: T47D; for IC50: read-out: IC50
Method: as §2
Additionally, the impact of the PRLR ligand, PRL, on PRLR-SMCC-DM1 cell kill in T47D cells was assessed. T47D cells were incubated simultaneously with PRL (15 nM) and either a non-blocking anti PRLR antibody (H1H6782P) or a receptor blocking antibody (H1H6958N2).
as §4

[6] = Conjugate characterization: protein and linker/payload concentrations, payload loading (UV, MALDI-TOF, SEC-HPLC, RP-HPLC); assay type: physicochemical; details: Anti-PRLR-SMCC-DM1 conjugates; Table 9
Text: Selected anti-PRLR antibodies were conjugated to the maytansinoid DM1 through an SMCC linker using methods similar to those set forth in U.S. Pat. No. 5,208,020 and US Patent Application Publication No. 2010/0129314, the disclosures of which are incorporated by reference herein in their entireties. The conjugates were purified by size exclusion chromatography and sterile filtered. All starting materials and solvents were purchased commercially and used without purification, unless otherwise noted.
Protein and linker/payload concentrations were determined by UV spectral analysis and MALDI-TOF mass spectrometry. Size-exclusion HPLC established that all conjugates used were >95% monomeric, and RP-HPLC established that there was <0.5% unconjugated linker payload. Yields are reported in Table 8 and 9 based on protein. All conjugated antibodies were analyzed by UV for linker payload loading values according to Hamblett et al, 2004, Clinical Cancer Research 10(20):7063-7070, and by mass difference, native versus conjugated.

[7] = test system: PC3 cells; test: Cell viability (cell kill) assay; assay type: cell-based
Text: as §1, §2, §3

| Molecule | % Kill ([2]; PC3/PRLR, Table 11, 3 days) | IC50 ([2]; PC3/PRLR, Table 11, 3 days) | % Kill ([3]; MCF7, Table 12, 3 days) | IC50 ([3]; MCF7, Table 12, 3 days) | % Kill ([4]; Table 12, 3 days) | IC50 ([4]; Table 12, 3 days) | % Kill ([5]; Table 12, 3 days) | IC50 ([5]; Table 12, 3 days) | Payload:Antibody Molar Ratio (MS) [6] | IC50 ([7]; Table 18) | % Kill ([2]; PC3/hPRLR, Table 18) | IC50 ([2]; PC3/hPRLR, Table 18) | % Kill ([3]; MCF7/ATCC, Table 18) | IC50 ([3]; MCF7/ATCC, Table 18) | % Kill ([3]; MCF7/ATCC, Table 20) | IC50 ([3]; MCF7/ATCC, Table 20) | % Kill ([4]; Table 18) | IC50 ([4]; Table 18) | % Kill ([4]; Table 20) | IC50 ([4]; Table 20) | other results |
| --- | --- | --- | --- | --- | --- | --- | --- | --- | --- | --- | --- | --- | --- | --- | --- | --- | --- | --- | --- | --- | --- |
| B1 | 66% | 0.98 nM | 64% | 110 nM | 83% | 0.46 nM | 80% | 12.6 nM | 2.9 |  |  |  |  |  |  |  |  |  |  |  | IC50 ([1]; Table 11, 3 days): 100 nM |
| B2 |  |  |  |  |  |  |  |  |  | 90 nM | 83% | 0.4 nM | 70% | 80 nM | 70% | 90 nM | 80% | 0.1 nM | 80% | 0.3 nM | % Kill ([1]; Table 19): 90%; IC50 ([1]; Table 19): 100 nM; % Kill ([5]; Table 19): 100%; IC50 ([5]; Table 19): 1.5 nM |
| B3 |  |  |  |  |  |  |  |  |  | 100 nM | 82% | 0.5 nM | 53% | 150 nM | 50% | 150 nM | 88% | 0.2 nM | 90% | 0.2 nM | % Kill ([5]; Table 19): 90%; IC50 ([5]; Table 19): 1 nM |
| B4 | 68% | 1.37 nM | 65% | 150 nM | 85% | 0.4 nM | 79% | 3.2 nM | 3.2 |  |  |  |  |  |  |  |  |  |  |  | % Kill ([1]; Table 11, 3 days): 85%; IC50 ([1]; Table 11, 3 days): 150 nM; IC50 ([7]; Table 11, 3 days): 150 nM; Payload:Antibody Molar Ratio (UV) [6]: 3.0 |
| B5 |  |  |  |  |  |  |  |  |  | 150 nM | 85% | 0.4 nM | 38% | 150 nM | 40% | 150 nM | 86% | 0.2 nM | 90% | 0.2 nM | % Kill ([5]; Table 19): 90%; IC50 ([5]; Table 19): 1 nM |
| B6 | 70% | 2.32 nM | 60% | 150 nM | 84% | 0.44 nM | 77% | 8.61 nM | 3.1 |  |  |  |  |  |  |  |  |  |  |  | IC50 ([7]; Table 11, 3 days): 150 nM |
